Data as given in publication PMC5829824.

Biological target: mCherry-tagged human vimentin (human) (UniProt P08670)
Assay: co-IP; mCherry-vimentin or RFP from bEnd.3 cell extracts immunoprecipitated with RFP-trap beads, then incubated with purified InlF-His6; eluates blotted with anti-His6 and anti-RFP; densitometry

Chain of mCherry-tagged human vimentin (human) (P08670 whole entry): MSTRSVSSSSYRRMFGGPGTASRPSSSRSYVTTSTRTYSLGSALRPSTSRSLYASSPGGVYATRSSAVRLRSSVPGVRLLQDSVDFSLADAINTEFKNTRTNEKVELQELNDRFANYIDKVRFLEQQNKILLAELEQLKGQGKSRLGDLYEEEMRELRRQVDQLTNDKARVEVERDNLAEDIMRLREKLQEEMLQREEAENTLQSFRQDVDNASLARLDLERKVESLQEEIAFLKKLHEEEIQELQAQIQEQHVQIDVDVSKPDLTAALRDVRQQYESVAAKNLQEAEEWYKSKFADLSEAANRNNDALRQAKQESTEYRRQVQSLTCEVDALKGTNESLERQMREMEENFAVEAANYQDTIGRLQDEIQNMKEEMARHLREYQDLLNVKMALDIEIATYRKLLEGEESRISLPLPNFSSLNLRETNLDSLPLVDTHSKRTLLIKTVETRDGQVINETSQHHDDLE

Question: With “InlF-His6 (Listeria monocytogenes internalin family surface protein InlF, His6-tagged) (from UniProt O33930 1-821) (natural protein)” as the substance, how does the ratio of anti-His to anti-RFP signals (densitometry), fold over the RFP control read?
Answer: The ratio of anti-His to anti-RFP signals (densitometry), fold over the RFP control was greater than 5 fold.
